Substitutions are numbered along the chain they refer to. In names and notes the source's numbering stands. Values belong to the molecule of their own block, whether it stands above or below them.
Columns and labels:
[1] = target: T1, human dimethylglycine dehydrogenase (hDMGDH) (Homo sapiens, UniProt Q9UI17); assay: stopped flow, FAD reduction at […] nm, hyperbolic fit of kobs; format: biochemical; settings: anaerobic, 50 mM HEPES/NaOH, 150 mM NaCl, pH 7.8, 25 °C; pre-steady-state; read-out: K D,DMG
T1 construct: gene DMGDH; covalent FAD at His91
T1 sequence (Q9UI17 29-866): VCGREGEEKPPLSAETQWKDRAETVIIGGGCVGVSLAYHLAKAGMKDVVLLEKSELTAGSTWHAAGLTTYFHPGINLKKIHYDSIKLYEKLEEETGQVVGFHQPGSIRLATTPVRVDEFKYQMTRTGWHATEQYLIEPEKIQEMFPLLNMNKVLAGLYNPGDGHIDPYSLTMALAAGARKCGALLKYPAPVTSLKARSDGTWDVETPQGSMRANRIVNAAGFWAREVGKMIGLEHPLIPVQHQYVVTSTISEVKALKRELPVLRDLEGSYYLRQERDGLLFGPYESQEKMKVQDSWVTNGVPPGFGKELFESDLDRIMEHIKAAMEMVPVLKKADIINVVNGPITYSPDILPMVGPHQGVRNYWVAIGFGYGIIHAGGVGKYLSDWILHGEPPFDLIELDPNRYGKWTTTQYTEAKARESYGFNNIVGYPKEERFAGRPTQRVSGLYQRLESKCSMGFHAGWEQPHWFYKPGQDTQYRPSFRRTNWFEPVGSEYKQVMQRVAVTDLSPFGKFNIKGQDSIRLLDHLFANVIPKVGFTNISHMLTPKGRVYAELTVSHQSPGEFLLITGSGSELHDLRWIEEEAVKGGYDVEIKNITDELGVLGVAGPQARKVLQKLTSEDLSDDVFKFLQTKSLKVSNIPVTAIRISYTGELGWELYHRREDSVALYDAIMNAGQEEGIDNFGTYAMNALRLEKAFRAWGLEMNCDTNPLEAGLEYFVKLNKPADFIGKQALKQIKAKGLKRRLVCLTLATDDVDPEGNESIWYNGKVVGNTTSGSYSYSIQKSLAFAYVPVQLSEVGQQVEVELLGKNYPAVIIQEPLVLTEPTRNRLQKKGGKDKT

[2] = target: T1, human dimethylglycine dehydrogenase (hDMGDH); assay: X-ray crystal structure, […] Å; format: binding; settings: covalent; 8alpha-methyl group linked to N3 of His91
[3] = target: T1, human dimethylglycine dehydrogenase (hDMGDH); assay: ferrocenium activity assay against THF concentration; format: biochemical; settings: 1 mM DMG, 0.2 mM ferrocene, 0-75 μM THF, 50 mM HEPES/NaOH, 150 mM NaCl, 0.1 mM EDTA, pH 7.8, 25 °C; physiological methyl acceptor
purified protein = substrate: CN(C)CC(=O)O; assay: purified protein; format: biochemical, Homo sapiens; settings: 0.2 mM ferrocenium hexafluorophosphate as electron acceptor, 50 mM HEPES/NaOH, 150 mM NaCl, 0.1 mM EDTA, pH 7.8, 25 °C
[4] = natural disease variant, partly apoprotein

Kd [1]: 4.9 ± 0.3 mM
Molecule: CN(C)CC(=O)O [DMG, dimethylglycine]

Molecule: Cc1cc2nc3c(=O)[nH]c(=O)nc-3n(C[C@H](O)[C@H](O)[C@H](O)COP(=O)(O)OP(=O)(O)OC[C@H]3O[C@@H](n4cnc5c(N)ncnc54)[C@H](O)[C@@H]3O)c2cc1C [FAD, flavin adenine dinucleotide]
X-ray crystal structure, 3.1 Å [2]: The FAD cofactor is covalently attached to the protein through a linkage between N3

Molecule: Nc1nc2c(c(=O)[nH]1)N[C@@H](CNc1ccc(C(=O)N[C@@H](CCC(=O)O)C(=O)O)cc1)CN2 [THF, tetrahydrofolate]
activity [3]: the activity of WT decreases as a function of the THF concentration

B1: human dimethylglycine dehydrogenase (hDMGDH) (Homo sapiens) (protein)
chain: T1 sequence (Q9UI17 29-866)
notes: covalent FAD at His91
Km (purified protein): 1.4 ± 0.1 mM | Vmax (purified protein): 22.1 µM/min | kcat (purified protein): 3.55 ± 0.0667 s⁻¹ | kcat/Km (purified protein): 2280 ± 267 M⁻¹ s⁻¹

B2: human dimethylglycine dehydrogenase (hDMGDH) (Homo sapiens; H109R) (protein)
chain: T1 sequence (Q9UI17 29-866) with H81R
notes: covalent FAD at His91
Km (purified protein; [4]): 32.2 ± 5.6 mM | Vmax (purified protein; [4]): 44.1 µM/min | kcat (purified protein; [4]): 9.07 ± 0.667 s⁻¹ | kcat/Km (purified protein; [4]): 183 ± 16.7 M⁻¹ s⁻¹
